Data: patent publication US20150158910A1 (Bristol-Myers Squibb, published 2015)

Legend:
[1] = molecular target: T1, human PAR4 (protease activated receptor 4) (human, UniProt Q96RI0 48-385); test: cell-based or functional assay
T1 sequence (looked up): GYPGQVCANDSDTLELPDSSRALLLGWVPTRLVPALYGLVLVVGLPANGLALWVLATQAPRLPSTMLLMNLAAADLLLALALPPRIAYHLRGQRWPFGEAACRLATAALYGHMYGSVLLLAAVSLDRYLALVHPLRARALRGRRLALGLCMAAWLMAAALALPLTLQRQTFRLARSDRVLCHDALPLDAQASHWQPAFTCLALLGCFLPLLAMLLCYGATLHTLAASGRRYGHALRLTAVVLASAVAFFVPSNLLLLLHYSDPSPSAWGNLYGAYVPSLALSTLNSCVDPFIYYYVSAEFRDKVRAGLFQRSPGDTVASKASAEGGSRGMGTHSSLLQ

[2] = molecular target: T2, PAR1 (protease activated receptor 1), endogenous in HEK293 cells (UniProt P25116 42-425, limits assumed); test: cell-based or functional assay
T2 sequence (looked up): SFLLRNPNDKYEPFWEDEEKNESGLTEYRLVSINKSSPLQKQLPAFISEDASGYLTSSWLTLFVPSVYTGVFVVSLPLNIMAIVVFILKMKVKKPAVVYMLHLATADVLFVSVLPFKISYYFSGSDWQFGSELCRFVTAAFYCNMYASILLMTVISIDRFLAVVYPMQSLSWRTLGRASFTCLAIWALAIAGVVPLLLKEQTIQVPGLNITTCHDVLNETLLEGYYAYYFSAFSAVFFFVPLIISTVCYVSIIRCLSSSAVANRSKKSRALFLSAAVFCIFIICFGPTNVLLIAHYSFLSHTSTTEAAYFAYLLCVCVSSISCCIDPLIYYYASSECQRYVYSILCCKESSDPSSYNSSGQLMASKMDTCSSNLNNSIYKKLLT

B1: Peptide SEQ ID NO: 10 (peptide)
peptide: AYPG
For B1, the “EC50 (µM) FLIPR Assay” value [1] was 600 µM.

B2: Peptide SEQ ID NO: 11 (peptide)
peptide: AYPGQVCAND
B2 was tested, and the “EC50 (µM) FLIPR Assay” value [1] was 159 µM.

B3: PAR4 agonist peptide SEQ ID NO: 2 (peptide)
peptide: AYPGWLVKNG
modifications: free N-terminus; C-terminal amide
For B3, the “EC50 (µM) FLIPR Assay” value [1] was 4.8 µM.

B4: SFFLRR (SEQ ID NO: 35) (peptide)
peptide: SFFLRR
In the case of B4, the “EC50, calcium mobilization (FLIPR/FDSS) in HEK293 PAR4 cells, PAR1 counter screen” value [2] is reported as 0.6 µM.
